What was measured:
[1] = target: mouse CD33 extracellular domain with 6xHis-tag (mouse) (UniProt Q63994); assay: ELISA, hybridoma supernatant
[2] = target: cynomolgus monkey CD33 extracellular domain with 6xHis-tag (cynomolgus monkey); assay: ELISA, hybridoma supernatant

mouse CD33 extracellular domain with 6xHis-tag (mouse), sequence (Q63994 other isoform, or with tags, fused parts or gaps limits assumed): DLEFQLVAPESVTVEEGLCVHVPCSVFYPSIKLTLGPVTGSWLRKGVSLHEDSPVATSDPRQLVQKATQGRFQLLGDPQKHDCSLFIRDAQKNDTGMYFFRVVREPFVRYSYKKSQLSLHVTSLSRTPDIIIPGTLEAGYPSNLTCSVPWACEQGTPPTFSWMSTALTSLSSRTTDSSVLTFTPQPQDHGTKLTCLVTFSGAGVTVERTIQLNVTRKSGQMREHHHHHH

Row | RLU [1] [RLU] | RLU [2] [RLU] | Binder
1 | 13700 | 12700 | 3-P14 (hybridoma antibody) (antibody, V domains shown) VH: EVQLLESGGGLVQPGGSLRLSCAASGFTFSTYAMSWVRQAPGKGLEWVSAISGRGGSTYYTDSVKGRFTISRDNSKNTVSLQMNSLRAEDTAVYYCAGRGDYYYYYGMDVWGQGTTVTVSA VL: DIVMTQSPLSSPVTLGQPASFSCRSSQSLVYSDGNTYLSWLQQRPGQPPRLLIYKISNRFSGVPDRFSGSGAGTDFTLKISRVEAEDVGVYYCMQSTQFPHTFGQGTKLEIK
2 | – | 35500 | 1-A20 (antibody, V domains shown) VH: QVQLQESGPGLVKPSETLSLTCTVSGDSISSYYWSWIRQPAGKGLEWIGRIYTSGNTNYNPSLKSRVTMSVDKSKNQFSLKLRSVTAADTAVYYCARDGDNRDSDAFDIWGQGTMVTVSS VL: SPGTLSLSPGERATLSCRASQNISSSYLAWCQQKPGQAPRLFIYGTSRRATGIPDRFSGSGSGTDFTLTISRLEPEDFAVYYCQQYGSSPLTFGGGTKVEIK
3 | – | 22500 | 1-H19 (antibody, V domains shown) VH: QVQLQESGPGLVKPSETLSLTCTVSGGSISTYYWSWIRQPAGKGLEWIGRIYTSGNTNYNPSLKSRVTMSVDTSKNQLSLKLRSVTAADTAVYYCARDGDNRNSDAFDIWGQGTMVTVSS VL: QSVLTQPPSVSGAPGQRVTISCTGSSSNIGAGYDVHWYQQLPGTAPKLLIYGNSNRPSGVPDRFSGSKSGTSASLAITGLQAEDEADYYCQSYDRSLSGWVFGGGTKLTVL
